US20100016697

T1: MT1-MMP specific fluorogenic substrate MCA-Pro-Leu-Ala-Cys(p-OmeBz)-Trp-Ala-Arg(Dpa)-NH2
T1 chain: PLACWAR

B1: MMP-2 (part of MMP-2/9, Chemicon) (protein)
chain: YNFFPRKPKWDKNQITYRIIGYTPDLDPETVDDAFARAFQVWSDVTPLRFSRIHDGEADIMINFGRWEHGDGYPFDGKDGLLAHAFAPGTGVGGDSHFDDDELWTLGEGQVVRVKYGNADGEYCKFPFLFNGKEYNSCTDTGRSDGFLWCSTTYNFEKDGKYGFCPHEALFTMGGNAEGQPCKFPFRFQGTSYDSCTTEGRTDGYRWCGTTEDYDRDKKYGFCPETAMSTVGGNSEGAPCVFPFTFLGNKYESCTSAGRSDGKMWCATTANYDDDRKWGFCPDQGYSLFLVAAHEFGHAMGLEHSQDPGALMAPIYTYTKNFRLSQDDIKGIQELYGASPDIDLGTGPTPTLGPVTPEICKQDIVFDGIAQIRGEIFFFKDRFIWRTVTPRDKPMGPLLVATFWPELPEKIDAVYEAPQEEKAVFFAGNEYWIYSASTLERGYPKPLTSLGLPPDVQRVDAAFNWSKNKKTYIFAGDKFWRYNEVKKKMDPGFPKLIADAWNAIPDNLDAVVDLQGGGHSYFFKGAYYLKLENQSLKSVKFGSIKSDWLGC
B2: a disintegrin and metalloproteinase (ADAM)-10 (R&D Systems) (protein)
chain: TTSAEKNTCQLYIQTDHLFFKYYGTREAVIAQISSHVKAIDTIYQTTDFSGIRNISFMVKRIRINTTADEKDPTNPFRFPNIGVEKFLELNSEQNHDDYCLAYVFTDRDFDDGVLGLAWVGAPSGSSGGICEKSKLYSDGKKKSLNTGIITVQNYGSHVPPKVSHITFAHEVGHNFGSPHDSGTECTPGESKNLGQKENGNYIMYARATSGDKLNNNKFSLCSIRNISQVLEKKRNNCFVESGQPICGNGMVEQGEECDCGYSDQCKDECCFDANQPEGRKCKLKPGKQCSPSQGPCCTAQCAFKSKSEKCRDDSDCAREGICNGFTALCPASDPKPNFTDCNRHTQVCINGQCAGSICEKYGLEECTCASSDGKDDKELCHVCCMKKMDPSTCASTGSVQWSRHFSGRTITLQPGSPCNDFRGYCDVFMRCRLVDADGPLARLKKAIFSPELYENIAE

Molecular target: T1, MT1-MMP specific fluorogenic substrate …

Protein | fluorescence emission (cleavage of the quenched fluorogenic substrate)
B1 | Incubation with MMP-2/9, MMP-8, or ADAM-10 and 17 alone failed to cause fluorescence emission from the MT1-MMP substrate.
B2 | Incubation with MMP-2/9, MMP-8, or ADAM-10 and 17 alone failed to cause fluorescence emission from the MT1-MMP substrate.
